From paper PMC9478397

Substrate: Nc1nc(N[C@@H]2O[C@H](COP(=O)(O)O)[C@@H](O)[C@H]2O)c(NC=O)c(=O)[nH]1
Test: formamidase assay, fluorescence HPLC of derivatized product (DARoPP / formate)
Assay type: biochemical, Sinorhizobium meliloti
Conditions: 50 mM TES pH 7.2, 10% glycerol, 0.25 mM DTT, 1 mM MgCl2, 30 °C, 8 min

B1: Sm-BrbF (SMc02977) (Sinorhizobium meliloti 1021) (protein)
chain: MSLPKPRWTDNSAALEPVERRDWIAVLPLGAHEQHGPHLPFETDRLIAAGIVERVIAALPQALPVTFLPVEPVGYSIEHMDVSGTRTLAYDEAIERWLGIAESLAGLGVRKFVMLNAHGGNSPLMTIVATEARIRFRMLAVATSWTRFGQPDGWISAKDKAVDIHGGDIETSVMLALHPDKVDMAKARAFPSRQGEFALSFKHLRAYGPHAFGWKMSDLNPDGVAGNAAAATAERGEALLAHAAKGIIELLEDVNAFDAGELD
notes: full ORF in pET-30 Ek/LIC, E. coli BL21; His tag cleaved with enterokinase, untagged
Protein B1 has a Km of 152.44 ± 33.59 µM.
